One block for each binder: values may come before it.
Legend:
[1] = target: T1, CD137 on Jurkat NFkB reporter cells (human, UniProt Q07011 24-255); experiment: cell-based or functional assay
[2] = target: T2, human serum albumin (human, UniProt P02768 25-609); experiment: SPR, SA coupled to chip, pH 5.5
T2 construct: Coupled directly to the CM5 chip; also called HSA; human SA
Experimental: (§1) Affinity of molecules to serum albumin (SA) of the different species was determined by SPR measurements using a Biacore T200 device (GE Healthcare). SA was directly coupled to a CM5 sensor chip (GE Healthcare) using amine coupling chemistry. […] The assay was run in a 1× PBS-Tween buffer at pH 5.5.

[3] = target: T3, mouse serum albumin (mouse, UniProt P07724 25-608); experiment: SPR, SA coupled to chip, pH 5.5
T3 construct: Coupled directly to the CM5 chip; also called MSA; mouse SA
Experimental: as §1

[4] = target: human PDL1 on cells (human, UniProt Q9NZQ7 19-290); experiment: cell-based or functional assay
[5] = target: T1, CD137 on Jurkat NFkB reporter cells; experiment: cell-based or functional assay; remark: listed apart in the source
[6] = target: T4, biotinylated human PDL1 (human, UniProt Q9NZQ7 19-238, limits assumed, biotinylated); experiment: competition ELISA PD-1/PDL1 with HSA
T4 construct: also called biotinylated PDL1
Experimental: (§2) Plates were blocked for 1 hour at room temperature by adding 300 μl of PBS with i%BSA and 0.2% tween (dilution buffer) to each well. Inhibitors were serially diluted in 3-fold steps to final concentrations ranging from 300 to 0.005 ng/ml in dilution buffer containing 1 ng/ml biotinylated human PDL1. The mixtures were pre-incubated for 1 hour at room temperature under gentle agitation on a rotating mixer (21 rpm) and added to the microplates after 3 wash cycles with 450 μl wash buffer per well. Plates were incubated for 1.5 hours at room temperature under gentle agitation, then 10 ng/ml streptavidin-polyHRP40 was added to each microplate well after three washes with 450 μl of wash buffer per well. After 1 h incubation at RT, plates were washed three times with 450 μl wash buffer and TMB substrate solution was added. The enzymatic reaction was stopped after 6 minutes by addition of 1 M HCl and absorbance was measured at 450 nm using 690 nm as a reference wavelength. For calculation of IC₅₀ values, a four-parameter logistic (4PL) curve fit was performed in Graph Pad Prism using reference subtracted values.

[7] = target: T1, CD137 on Jurkat NFkB reporter cells; experiment: cell-based or functional assay; remark: listed apart in the source
[8] = target: cynomolgus CD137-Fc chimeric protein (cynomolgus monkey, UniProt A9YYE7 24-186); experiment: SPR
In short: (§3)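 Kinetics were fitted with a one-to-one Langmuir model to give apparent ka, kd and KD. Binders at 0.12-90 nM (three-fold series) flowed 3 min, with 10 min dissociation and 3 M MgCl₂ regeneration, on a Biacore T200.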

[9] = target: T5, Fc tagged human CD137 (human, UniProt Q07011 24-186); experiment: SPR
T5 construct: also called CD137-Fc chimeric protein
In short: as §3

[10] = target: T6, Fc tagged human PDL1 (human, UniProt Q9NZQ7 19-239); experiment: SPR
T6 construct: Bought (Sino Biological, cat. 10084-H02H); captured on the SPR chip; also called PDL1-Fc chimeric protein
In short: as §3

[11] = target: T7, mouse CD137-Fc chimeric protein (mouse, UniProt P20334 24-187, limits assumed); experiment: SPR
T7 sequence (looked up): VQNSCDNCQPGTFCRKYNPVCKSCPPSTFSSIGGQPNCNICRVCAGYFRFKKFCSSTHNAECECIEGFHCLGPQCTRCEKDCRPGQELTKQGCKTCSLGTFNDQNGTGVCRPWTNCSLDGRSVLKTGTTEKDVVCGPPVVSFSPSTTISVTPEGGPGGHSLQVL
In short: as §3

[12] = target: T4, biotinylated human PDL1; experiment: PD-1/PDL1 competition ELISA with 1 mg/ml HSA: coated human PD-1, biotinylated human PDL1; blocked ligand: human PD-1
Experimental: as §2

[13] = target: T4, biotinylated human PDL1; experiment: competition ELISA PD-1/PDL1
[14] = target: T4, biotinylated human PDL1; experiment: competition ELISA B7.1/PDL1
In short: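 IC₅₀ was derived by four-parameter logistic fitting of reference-subtracted A450/690 readings. The signal came from streptavidin-polyHRP40 (10 ng/ml) with a 6-minute TMB reaction detecting biotinylated PDL1 bound to the plate. Pre-mixed samples sat 1 h at RT before a 1.5 h plate incubation.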

[15] = target: T1, CD137 on Jurkat NFkB reporter cells; experiment: cell-based or functional assay; remark: listed apart in the source
[16] = target: T3, mouse serum albumin; experiment: SPR, SA coupled to chip
Experimental: as §1

EC50, NFkB reporter, CHO-PDL1, 24 h, +HSA [1]: 0.792 µg/mL | koff [2]: 0.00067 s⁻¹ | kon [2]: 240000 M⁻¹ s⁻¹ | kon [3]: 130000 M⁻¹ s⁻¹ | IC50 (ng/ml), NF-AT potency assay, +HSA [4]: 665 ng/mL | rel. IC50 (avelumab/test), +HSA [4]: 0.1 fold | IC50 (ng/ml), NFkB reporter, CHO-PD-L1, 24 h, +HSA [5]: 792 ng/mL | IC50 (ng/ml), NFkB reporter, HCC827 + IFNg, 24 h, +HSA [5]: 115 ng/mL | IC50 (ng/ml), NFkB reporter, HCC827 - IFNg, 24 h, +HSA [5]: 76.6 ng/mL | max. activation (%), NFkB reporter, CHO-PD-L1, 24 h, +HSA [5]: 663% | rel. IC50 (urelumab/test), NFkB reporter, CHO-PD-L1, 24 h, +HSA [5]: 0.1 fold | rel. IC50 (urelumab/test), NFkB reporter, HCC827 + IFNg, 24 h, +HSA [5]: 0.46 fold | rel. IC50 (urelumab/test), NFkB reporter, HCC827 - IFNg, 24 h, +HSA [5]: 0.62 fold | fold change of IC50 in presence of human serum albumin [6]: ~2 fold | EC50, NFkB reporter, CHO-PDL1, 6 h, +HSA [7]: 0.112 µg/mL | Kd [8]: 4.8 nM | Kd [9]: 5.15 nM | koff [9]: 0.0007 s⁻¹ | kon [9]: 240000 M⁻¹ s⁻¹ | Kd [10]: 0.11 nM | koff [10]: 0.00017 s⁻¹ | Kd [11]: 1200 nM | IC50 (read off the curve) [12]: ~0.02 µg/mL | IC50 [13]: 0.00861 µg/mL | rel. IC50 (IC50 avelumab/IC50 test) [13]: 0.2 fold | IC50 [14]: 0.0163 µg/mL | rel. IC50 (IC50 avelumab/IC50 test) [14]: 0.53 fold | EC50, NFkB reporter, HCC827 with IFNg, 24 h, +HSA [15]: 0.115 µg/mL | EC50, NFkB reporter, HCC827 without IFNg, 24 h, +HSA [15]: 0.0766 µg/mL
B1: PRO1057 (other)
chain: DIQMTQSPSSLSASVGDRVTITCQASQSINDYLAWYQQKPGKAPKLLIYKASTLASGVPSRFSGSGSGTDFTLTISSLQPEDFATYYCQQGYIITDIDNVFGTGTKVTVLGGGGGSQVQLQESGPGLVKPSETLSLTCKVSGFSFSNSYWICWIRQPPGKGLEWIGCTFVGSSDSTYYANWAKGRVTISVDSSKNQFSLKLSSVTAADTAVYYCARHPSDAVYGYANNLWGQGTLVTVSSGGGGSGGGGSGGGGSGGGGSIQMTQSPSSLSASVGDRVTITCQASQSINNVLAWYQQKPGKAPKLLIYRASTLASGVPSRFSGSGSGTDFTLTISSLQPEDFATYYCQSSYGNYGDFGTGTKVTVLGGGGGSQVQLQESGPGLVKPSETLSLTCKVSGFSFSSGYDMCWIRQPPGKGLEWIGCVVAGSVDITYYASWAKGRVTISVDSSKNQFSLKLSSVTAADTAVYYCARKDAYSDAFNLWGQGTLVTVSSGGGGSGGGGSVVMTQSPSSLSASVGDRVTITCQASQIISSRSAWYQQKPGQPPKLLIYQASKLASGVPSRFSGSGSGTDFTLTISSLQPEDFATYYCQCTYIDSNFGAFGGGTKLTVLGGGGGSGGGGSGGGGSGGGGSEVQLVESGGGLVQPGGSLRLSCAASGFSFSSSYWICWVRQAPGKGLEWVGCVFTGDGTTYYASWAKGRFTISRDNSKNTVYLQMNSLRAEDTATYFCARPVSVYYYGMDLWGQGTLVTVSS
notes: trispecific scDb-scFv; also called 38-02-A04 sc01 scDb-i/33-03-G02 sc01 scDb-o/23-12-A01-sc03, sk17sh4

koff [2]: 0.0003 s⁻¹ | IC50 (ng/ml), NF-AT potency assay, +HSA [4]: 275 ng/mL | rel. IC50 (avelumab/test), +HSA [4]: 0.25 fold | max. activation (%), NFkB reporter, CHO-PD-L1, 24 h, +HSA [5]: 369% | Kd [9]: 3 nM | koff [9]: 0.00062 s⁻¹ | kon [9]: 200000 M⁻¹ s⁻¹ | Kd [10]: 0.0066 nM | kon [10]: 2e+06 M⁻¹ s⁻¹ | binding result [16]: no binding
B2: PRO963 (other)
chain: DIQMTQSPSSLSASVGDRVTITCQASQSINDYLAWYQQKPGKAPKLLIYKASTLASGVPSRFSGSGSGTDFTLTISSLQPEDFATYYCQQGYIITDIDNVFGTGTKVTVLGGGGGSQVQLQESGPGLVKPSETLSLTCKVSGFSFSNSYWICWIRQPPGKGLEWIGCTFVGSSDSTYYANWAKGRVTISVDSSKNQFSLKLSSVTAADTAVYYCARHPSDAVYGYANNLWGQGTLVTVSSGGGGSGGGGSGGGGSGGGGSIQMTQSPSSLSASVGDRVTITCQASQSINNVLAWYQQKPGKAPKLLIYRASTLASGVPSRFSGSGSGTDFTLTISSLQPEDFATYYCQSSYGNYGDFGTGTKVTVLGGGGGSQVQLQESGPGLVKPSETLSLTCKVSGFSFSSGYDMCWIRQPPGKGLEWIGCVVAGSVDITYYASWAKGRVTISVDSSKNQFSLKLSSVTAADTAVYYCARKDAYSDAFNLWGQGTLVTVSSGGGGSGGGGSIQMTQSPSSLSASVGDRVTITCQSSESVYSNNQLSWYQQKPGQPPKLLIYDASDLASGVPSRFSGSGSGTDFTLTISSLQPEDFATYYCAGGFSSSSDTAFGGGTKLTVLGGGGGSGGGGSGGGGSGGGGSEVQLVESGGGLVQPGGSLRLSCAASGFSLSSNAMGWVRQAPGKGLEYIGIISVGGFTYYASWAKGRFTISRDNSKNTVYLQMNSLRAEDTATYFCARDRHGGDSSGAFYLWGQGTLVTVSS
notes: trispecific scDb-scFv anti-PDL1 x CD137 x HSA; also called PRO1051; 38-02-A04 sc01 scDb-i/33-03-G02 sc01 scDb-o/19-01-H04-sc03 scFv
